Measurements: patent US6225451

Tested on: T1, CHD1.ZnF3-8 (CHD1 zinc fingers 3 through 8) (Homo sapiens)
T1 sequence: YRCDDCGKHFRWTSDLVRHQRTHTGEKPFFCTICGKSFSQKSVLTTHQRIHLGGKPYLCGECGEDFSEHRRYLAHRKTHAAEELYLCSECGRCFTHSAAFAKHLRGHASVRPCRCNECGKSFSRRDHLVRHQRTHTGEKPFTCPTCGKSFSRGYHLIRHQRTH
Assay: EMSA
Conditions: apparent, upper limit from protein dilution; poly d(I:C) does not compete

ApoAIV promoter fragment -573 to -165 showed a Kd of 10 nM.
